Test results as given in patent publication US5849585.

Molecular target: receptors for heregulin on rat Schwann cell lines (ESC and ASC)

Substance: recombinant human heregulin-β1 177-244 fragment (from UniProt Q02297) (ligand)
- half-maximal response, growth of rat ESC and ASC Schwann cell lines: 1 to 2 nM
